Usually Kd stands for a measure of binding affinity in units of concentration.

To fix the notation:
B1: human ornithine decarboxylase, wild type (enzyme)
chain: EEFDCHFLDEGFTAKDILDQKINEVSSSDDKDAFYVADLGDILKKHLRWLKALPRVTPFYAVKCNDSKAIVKTLAATGTGFDCASKTEIQLVQSLGVPPERIIYANPCKQVSQIKYAANNGVQMMTFDSEVELMKVARAHPKAKLVLRIATDDSKAVCRLSVKFGATLRTSRLLLERAKELNIDVVGVSFHVGSGCTDPETFVQAISDARCVFDMGAEVGFSMYLLDIGGGFPGSEDVKLKFEEITGVINPALDKYFPSDSGVRIIAEPGRYYVASAFTLAVNIIAKKIVLKEQTGSDDEDESSEQTFMYYVNDGVYGSFNCILYDHAHVKPLLQKRPKPDEKYYSSSIWGPTCDGLDRIVERCDLPEMHVGDWMLFENMGAYTVAAASTFNGFQRPTIYYVMSGPAWQLMQQFQNPDFPP
notes: ornithine decarboxylase (ODC), human; cDNA cloned into pQE30; Written as the protomer; it associates with itself to the dimer; also called ODC
B2: human ornithine decarboxylase Y331S/Y389D/R277S/D332E/V322D/D134A (enzyme)
chain: EEFDCHFLDEGFTAKDILDQKINEVSSSDDKDAFYVADLGDILKKHLRWLKALPRVTPFYAVKCNDSKAIVKTLAATGTGFDCASKTEIQLVQSLGVPPERIIYANPCKQVSQIKYAANNGVQMMTFASEVELMKVARAHPKAKLVLRIATDDSKAVCRLSVKFGATLRTSRLLLERAKELNIDVVGVSFHVGSGCTDPETFVQAISDARCVFDMGAEVGFSMYLLDIGGGFPGSEDVKLKFEEITGVINPALDKYFPSDSGVRIIAEPGSYYVASAFTLAVNIIAKKIVLKEQTGSDDEDESSEQTFMYYVNDGDYGSFNCILSEHAHVKPLLQKRPKPDEKYYSSSIWGPTCDGLDRIVERCDLPEMHVGDWMLFENMGADTVAAASTFNGFQRPTIYYVMSGPAWQLMQQFQNPDFPP
notes: ornithine decarboxylase (ODC), human; cDNA cloned into pQE30; also called [ODC_4M]+[V322D/D134A]; sextuple mutant
B3: human ornithine decarboxylase Y331S/Y389D/R277S/D332E/V322D (enzyme)
chain: EEFDCHFLDEGFTAKDILDQKINEVSSSDDKDAFYVADLGDILKKHLRWLKALPRVTPFYAVKCNDSKAIVKTLAATGTGFDCASKTEIQLVQSLGVPPERIIYANPCKQVSQIKYAANNGVQMMTFDSEVELMKVARAHPKAKLVLRIATDDSKAVCRLSVKFGATLRTSRLLLERAKELNIDVVGVSFHVGSGCTDPETFVQAISDARCVFDMGAEVGFSMYLLDIGGGFPGSEDVKLKFEEITGVINPALDKYFPSDSGVRIIAEPGSYYVASAFTLAVNIIAKKIVLKEQTGSDDEDESSEQTFMYYVNDGDYGSFNCILSEHAHVKPLLQKRPKPDEKYYSSSIWGPTCDGLDRIVERCDLPEMHVGDWMLFENMGADTVAAASTFNGFQRPTIYYVMSGPAWQLMQQFQNPDFPP
notes: ornithine decarboxylase (ODC), human; cDNA cloned into pQE30; also called [ODC_4M]+V322D
B4: human ornithine decarboxylase Y389D (enzyme)
chain: EEFDCHFLDEGFTAKDILDQKINEVSSSDDKDAFYVADLGDILKKHLRWLKALPRVTPFYAVKCNDSKAIVKTLAATGTGFDCASKTEIQLVQSLGVPPERIIYANPCKQVSQIKYAANNGVQMMTFDSEVELMKVARAHPKAKLVLRIATDDSKAVCRLSVKFGATLRTSRLLLERAKELNIDVVGVSFHVGSGCTDPETFVQAISDARCVFDMGAEVGFSMYLLDIGGGFPGSEDVKLKFEEITGVINPALDKYFPSDSGVRIIAEPGRYYVASAFTLAVNIIAKKIVLKEQTGSDDEDESSEQTFMYYVNDGVYGSFNCILYDHAHVKPLLQKRPKPDEKYYSSSIWGPTCDGLDRIVERCDLPEMHVGDWMLFENMGADTVAAASTFNGFQRPTIYYVMSGPAWQLMQQFQNPDFPP
notes: ornithine decarboxylase (ODC), human; cDNA cloned into pQE30
B5: human ornithine decarboxylase R165E (enzyme)
chain: EEFDCHFLDEGFTAKDILDQKINEVSSSDDKDAFYVADLGDILKKHLRWLKALPRVTPFYAVKCNDSKAIVKTLAATGTGFDCASKTEIQLVQSLGVPPERIIYANPCKQVSQIKYAANNGVQMMTFDSEVELMKVARAHPKAKLVLRIATDDSKAVCELSVKFGATLRTSRLLLERAKELNIDVVGVSFHVGSGCTDPETFVQAISDARCVFDMGAEVGFSMYLLDIGGGFPGSEDVKLKFEEITGVINPALDKYFPSDSGVRIIAEPGRYYVASAFTLAVNIIAKKIVLKEQTGSDDEDESSEQTFMYYVNDGVYGSFNCILYDHAHVKPLLQKRPKPDEKYYSSSIWGPTCDGLDRIVERCDLPEMHVGDWMLFENMGAYTVAAASTFNGFQRPTIYYVMSGPAWQLMQQFQNPDFPP
notes: as for B4
B6: human ornithine decarboxylase Y331S/Y389D (enzyme)
chain: EEFDCHFLDEGFTAKDILDQKINEVSSSDDKDAFYVADLGDILKKHLRWLKALPRVTPFYAVKCNDSKAIVKTLAATGTGFDCASKTEIQLVQSLGVPPERIIYANPCKQVSQIKYAANNGVQMMTFDSEVELMKVARAHPKAKLVLRIATDDSKAVCRLSVKFGATLRTSRLLLERAKELNIDVVGVSFHVGSGCTDPETFVQAISDARCVFDMGAEVGFSMYLLDIGGGFPGSEDVKLKFEEITGVINPALDKYFPSDSGVRIIAEPGRYYVASAFTLAVNIIAKKIVLKEQTGSDDEDESSEQTFMYYVNDGVYGSFNCILSDHAHVKPLLQKRPKPDEKYYSSSIWGPTCDGLDRIVERCDLPEMHVGDWMLFENMGADTVAAASTFNGFQRPTIYYVMSGPAWQLMQQFQNPDFPP
notes: as for B4
B7: human ornithine decarboxylase Y331S/Y389D/R277S/D332E/K169A (enzyme)
chain: EEFDCHFLDEGFTAKDILDQKINEVSSSDDKDAFYVADLGDILKKHLRWLKALPRVTPFYAVKCNDSKAIVKTLAATGTGFDCASKTEIQLVQSLGVPPERIIYANPCKQVSQIKYAANNGVQMMTFDSEVELMKVARAHPKAKLVLRIATDDSKAVCRLSVAFGATLRTSRLLLERAKELNIDVVGVSFHVGSGCTDPETFVQAISDARCVFDMGAEVGFSMYLLDIGGGFPGSEDVKLKFEEITGVINPALDKYFPSDSGVRIIAEPGSYYVASAFTLAVNIIAKKIVLKEQTGSDDEDESSEQTFMYYVNDGVYGSFNCILSEHAHVKPLLQKRPKPDEKYYSSSIWGPTCDGLDRIVERCDLPEMHVGDWMLFENMGADTVAAASTFNGFQRPTIYYVMSGPAWQLMQQFQNPDFPP
notes: ornithine decarboxylase (ODC), human; cDNA cloned into pQE30; also called [ODC_4M]+K169A
B8: human ornithine decarboxylase Y331S/Y389D/R277S/D332E/R165E (enzyme)
chain: EEFDCHFLDEGFTAKDILDQKINEVSSSDDKDAFYVADLGDILKKHLRWLKALPRVTPFYAVKCNDSKAIVKTLAATGTGFDCASKTEIQLVQSLGVPPERIIYANPCKQVSQIKYAANNGVQMMTFDSEVELMKVARAHPKAKLVLRIATDDSKAVCELSVKFGATLRTSRLLLERAKELNIDVVGVSFHVGSGCTDPETFVQAISDARCVFDMGAEVGFSMYLLDIGGGFPGSEDVKLKFEEITGVINPALDKYFPSDSGVRIIAEPGSYYVASAFTLAVNIIAKKIVLKEQTGSDDEDESSEQTFMYYVNDGVYGSFNCILSEHAHVKPLLQKRPKPDEKYYSSSIWGPTCDGLDRIVERCDLPEMHVGDWMLFENMGADTVAAASTFNGFQRPTIYYVMSGPAWQLMQQFQNPDFPP
notes: ornithine decarboxylase (ODC), human; cDNA cloned into pQE30; also called [ODC_4M]+R165E
B9: human ornithine decarboxylase D134A (enzyme)
chain: EEFDCHFLDEGFTAKDILDQKINEVSSSDDKDAFYVADLGDILKKHLRWLKALPRVTPFYAVKCNDSKAIVKTLAATGTGFDCASKTEIQLVQSLGVPPERIIYANPCKQVSQIKYAANNGVQMMTFASEVELMKVARAHPKAKLVLRIATDDSKAVCRLSVKFGATLRTSRLLLERAKELNIDVVGVSFHVGSGCTDPETFVQAISDARCVFDMGAEVGFSMYLLDIGGGFPGSEDVKLKFEEITGVINPALDKYFPSDSGVRIIAEPGRYYVASAFTLAVNIIAKKIVLKEQTGSDDEDESSEQTFMYYVNDGVYGSFNCILYDHAHVKPLLQKRPKPDEKYYSSSIWGPTCDGLDRIVERCDLPEMHVGDWMLFENMGAYTVAAASTFNGFQRPTIYYVMSGPAWQLMQQFQNPDFPP
notes: as for B4
B10: human ornithine decarboxylase Y331S/Y389D/R277S (enzyme)
chain: EEFDCHFLDEGFTAKDILDQKINEVSSSDDKDAFYVADLGDILKKHLRWLKALPRVTPFYAVKCNDSKAIVKTLAATGTGFDCASKTEIQLVQSLGVPPERIIYANPCKQVSQIKYAANNGVQMMTFDSEVELMKVARAHPKAKLVLRIATDDSKAVCRLSVKFGATLRTSRLLLERAKELNIDVVGVSFHVGSGCTDPETFVQAISDARCVFDMGAEVGFSMYLLDIGGGFPGSEDVKLKFEEITGVINPALDKYFPSDSGVRIIAEPGSYYVASAFTLAVNIIAKKIVLKEQTGSDDEDESSEQTFMYYVNDGVYGSFNCILSDHAHVKPLLQKRPKPDEKYYSSSIWGPTCDGLDRIVERCDLPEMHVGDWMLFENMGADTVAAASTFNGFQRPTIYYVMSGPAWQLMQQFQNPDFPP
notes: as for B4
B11: human ornithine decarboxylase Y331S/Y389D/R277S/D332E/D134A (enzyme)
chain: EEFDCHFLDEGFTAKDILDQKINEVSSSDDKDAFYVADLGDILKKHLRWLKALPRVTPFYAVKCNDSKAIVKTLAATGTGFDCASKTEIQLVQSLGVPPERIIYANPCKQVSQIKYAANNGVQMMTFASEVELMKVARAHPKAKLVLRIATDDSKAVCRLSVKFGATLRTSRLLLERAKELNIDVVGVSFHVGSGCTDPETFVQAISDARCVFDMGAEVGFSMYLLDIGGGFPGSEDVKLKFEEITGVINPALDKYFPSDSGVRIIAEPGSYYVASAFTLAVNIIAKKIVLKEQTGSDDEDESSEQTFMYYVNDGVYGSFNCILSEHAHVKPLLQKRPKPDEKYYSSSIWGPTCDGLDRIVERCDLPEMHVGDWMLFENMGADTVAAASTFNGFQRPTIYYVMSGPAWQLMQQFQNPDFPP
notes: ornithine decarboxylase (ODC), human; cDNA cloned into pQE30; also called [ODC_4M]+D134A
B12: human ornithine decarboxylase Y331S/Y389D/R277S/D332E/K294A (enzyme)
chain: EEFDCHFLDEGFTAKDILDQKINEVSSSDDKDAFYVADLGDILKKHLRWLKALPRVTPFYAVKCNDSKAIVKTLAATGTGFDCASKTEIQLVQSLGVPPERIIYANPCKQVSQIKYAANNGVQMMTFDSEVELMKVARAHPKAKLVLRIATDDSKAVCRLSVKFGATLRTSRLLLERAKELNIDVVGVSFHVGSGCTDPETFVQAISDARCVFDMGAEVGFSMYLLDIGGGFPGSEDVKLKFEEITGVINPALDKYFPSDSGVRIIAEPGSYYVASAFTLAVNIIAKAIVLKEQTGSDDEDESSEQTFMYYVNDGVYGSFNCILSEHAHVKPLLQKRPKPDEKYYSSSIWGPTCDGLDRIVERCDLPEMHVGDWMLFENMGADTVAAASTFNGFQRPTIYYVMSGPAWQLMQQFQNPDFPP
notes: ornithine decarboxylase (ODC), human; cDNA cloned into pQE30; also called [ODC_4M]+K294A
B13: human ornithine decarboxylase Y331S/Y389D/R277S/D332E (enzyme)
chain: EEFDCHFLDEGFTAKDILDQKINEVSSSDDKDAFYVADLGDILKKHLRWLKALPRVTPFYAVKCNDSKAIVKTLAATGTGFDCASKTEIQLVQSLGVPPERIIYANPCKQVSQIKYAANNGVQMMTFDSEVELMKVARAHPKAKLVLRIATDDSKAVCRLSVKFGATLRTSRLLLERAKELNIDVVGVSFHVGSGCTDPETFVQAISDARCVFDMGAEVGFSMYLLDIGGGFPGSEDVKLKFEEITGVINPALDKYFPSDSGVRIIAEPGSYYVASAFTLAVNIIAKKIVLKEQTGSDDEDESSEQTFMYYVNDGVYGSFNCILSEHAHVKPLLQKRPKPDEKYYSSSIWGPTCDGLDRIVERCDLPEMHVGDWMLFENMGADTVAAASTFNGFQRPTIYYVMSGPAWQLMQQFQNPDFPP
notes: ornithine decarboxylase (ODC), human; cDNA cloned into pQE30; also called ODC_4M

The series concerns the molecule itself. Nature of the series: AUC; sedimentation velocity, 0.3, 0.6 and 0.9 mg/ml protein in 50 mM Tris-HCl pH 7.5, 293 K, 42,000 rpm; global fit to a monomer-dimer equilibrium model (SEDPHAT); dimer to monomers.
With B1, the Kd turned out to be 100 ± 1 nM.
Next, B2: 52800 ± 500 nM; B3: 25200 ± 30 nM.
Next, B4: 690 ± 5 nM; B5: 110 ± 1 nM; B6: 160 ± 1 nM.
As for B7, the figure is 1490 ± 40 nM; as for B8, 13500 ± 450 nM; as for B9, 120 ± 12 nM.
For the protein B10, the Kd came to 1030 ± 4 nM.
With B11, the Kd was 13300 ± 40 nM.
As for B12, the figure is 260 ± 60 nM; as for B13, 15900 ± 80 nM.

These data come from PMC4139326, “Functional Roles of the Dimer-Interface Residues in Human Ornithine Decarboxylase” (PLoS ONE, 2014).
